From publication PMC7509555, “An In Vitro Study for Evaluating Permeability and Metabolism of Kurarinone” (Evidence-based Complementary and Alternative Medicine : eCAM, 2020)
One block for each molecule: values may come before it.

Tests used:
Format in all cases: in vitro ADME, human
HLMs = test: Chemical inhibition study of kurarinone metabolism (P1 formation) in HLMs; details: kurarinone 20 μM in HLMs
Source text: HLMs were utilized as metabolic enzymes.

[1] = substrate: C=C(C)C(CC=C(C)C)Cc1c(O)cc(OC)c2c1O[C@H](c1ccc(O)cc1O)CC2=O; test: Enzyme kinetics of P1 formation from kurarinone in recombinant CYP1A2; details: other: recombinant CYP1A2; kurarinone 1–200 μM; 37.0 °C
Experimental: (§1) Samples were prepared in a total volume of 200 μL, containing 0.3 mg/mL protein in human liver microsomes or 15 nM protein in recombinant human supersomes, probe substrates or 50 μM kurarinone, 10 mM MgCl2, 10 mM glucose-6-phosphate, and 1 unit/mL of glucose-6-phosphate dehydrogenase. The reactions were activated by adding NADPH following preincubation at 37°C for 5 min. The reactions were maintained at 37°C for 1 h and terminated by adding 200 μL ice-cold acetonitrile. The supernatant (10 μL) collected from the samples that were centrifuged (20,000 g, 20 min, 4°C) was injected into the HPLC system for analysis. Control incubations devoid of NADPH or kurarinone were performed parallelly to ensure that the produced metabolites were NADPH- or kurarinone-dependent.
(§2) Various concentrations of kurarinone (1–200 μM) were incubated with RLMs, MLMs, PLMs, RAMs, CYP1A2, and CYP2D6 to estimate kinetic parameters. The rest of the other conditions remained the same as described in Section 2.3. […] The apparent Km and Vmax values were calculated from nonlinear regression analysis of experimental data according to the Michaelis–Menten equation, and the results were represented graphically by Eadie–Hofstee plots. All incubations were carried out as triplicate independent experiments, and kinetic constants were recorded as mean ± SD.

[2] = substrate: C=C(C)C(CC=C(C)C)Cc1c(O)cc(OC)c2c1O[C@H](c1ccc(O)cc1O)CC2=O; test: Enzyme kinetics of P1 formation from kurarinone in recombinant CYP2D6; details: other: recombinant CYP2D6; kurarinone 1–200 μM; 37.0 °C
Experimental: as §1, §2

effect of selective CYP inhibitor on formation of P1 from kurarinone (HLMs): remarkably inhibited
Molecule: Cc1nc2c([nH]1)c(=O)n(C)c(=O)n2Cc1ccco1 [furafylline]

B1: CYP1A2 (Homo sapiens) (protein)
chain: MALSQSVPFSATELLLASAIFCLVFWVLKGLRPRVPKGLKSPPEPWGWPLLGHVLTLGKNPHLALSRMSQRYGDVLQIRIGSTPVLVLSRLDTIRQALVRQGDDFKGRPDLYTSTLITDGQSLTFSTDSGPVWAARRRLAQNALNTFSIASDPASSSSCYLEEHVSKEAKALISRLQELMAGPGHFDPYNQVVVSVANVIGAMCFGQHFPESSDEMLSLVKNTHEFVETASSGNPLDFFPILRYLPNPALQRFKAFNQRFLWFLQKTVQEHYQDFDKNSVRDITGALFKHSKKGPRASGNLIPQEKIVNLVNDIFGAGFDTVTTAISWSLMYLVTKPEIQRKIQKELDTVIGRERRPRLSDRPQLPYLEAFILETFRHSSFLPFTIPHSTTRDTTLNGFYIPKKCCVFVNQWQVNHDPELWEDPSEFRPERFLTADGTAINKPLSEKMMLFGMGKRRCIGEVLAKWEIFLFLAILLQQLEFSVPPGVKVDLTPIYGLTMKHARCEHVQARLRFSIN
notes: purchased BD Gentest Corp. (Woburn, MA, USA)
Km [1]: 9.45 ± 2.11 µM
kcat [1]: 2.45 ± 0.25 μmol·min^−1·nmol^−1 CYP

B2: CYP2D6 (Homo sapiens) (protein)
chain: MGLEALVPLAVIVAIFLLLVDLMHRRQRWAARYPPGPLPLPGLGNLLHVDFQNTPYCFDQLRRRFGDVFSLQLAWTPVVVLNGLAAVREALVTHGEDTADRPPVPITQILGFGPRSQGVFLARYGPAWREQRRFSVSTLRNLGLGKKSLEQWVTEEAACLCAAFANHSGRPFRPNGLLDKAVSNVIASLTCGRRFEYDDPRFLRLLDLAQEGLKEESGFLREVLNAVPVLLHIPALAGKVLRFQKAFLTQLDELLTEHRMTWDPAQPPRDLTEAFLAEMEKAKGNPESSFNDENLRIVVADLFSAGMVTTSTTLAWGLLLMILHPDVQRRVQQEIDDVIGQVRRPEMGDQAHMPYTTAVIHEVQRFGDIVPLGVTHMTSRDIEVQGFRIPKGTTLITNLSSVLKDEAVWEKPFRFHPEHFLDAQGHFVKPEAFLPFSAGRRACLGEPLARMELFLFFTSLLQHFSFSVPTGQPRPSHHGVFAFLVSPSPYELCAVPR
notes: as for B1
Km [2]: 13.76 ± 3.09 µM
kcat [2]: 2.78 ± 0.36 μmol·min^−1·nmol^−1 CYP
